{
  "source": "the nanobody polyreactivity screen of Harvey et al. (2022)",
  "data": [
    {"assay": "yeast display, Sf9 membrane polyspecificity reagent, FACS + sequencing; frameworks hold sequencing errors", "how_it_was_run": "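Galactose induction of a Saccharomyces cerevisiae BJ5465 synthetic nanobody display library ran 36–48 hours. The cells were then stained for 1 hour at 4 °C with 10% biotinylated, detergent-solubilized Sf9 membrane reagent, pulled down on streptavidin microbeads and FACS-sorted into low and high (top ~1%) gates on expression and reagent-binding fluorescence. Labels for polyreactivity follow the gate of origin.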", "values": [
      {"sequence": "QVQLVESGGGLVQAGGSLRLSCAASDTPSSSMLMGWYRQAPGKERQLVAAISGSDGTTYYADSVKGRFTISRDNAKNTVYLQMNSLKPEDTAVYYCAADDRVDSGYIKDDYWGQGTQVTVSS", "polyreactivity (PSR sort gate)": "low polyreactivity"},
      {"sequence": "QVQLVESGGGLVQAGGSLRLSCAASGATLVWNTMGWCRQAPGTERELVAGITSGGSTKYADSVKGRFTISRDNAKNTVYLQMKRLKPEDTAVYYCAADCYGQAIFIYDYWGQGTQVTVSS", "polyreactivity (PSR sort gate)": "low polyreactivity"},
      {"sequence": "QVQLVESGGGLVQAGGSLRLSCAASGCIFEIYAMGWYRQAPGKERELVAAITDSGGSTYYADSVKARFTISRDNANNTVYLQMNSLKPEDTAVYYCAAVGNSYETLLFYYWGQGTQVTVSS", "polyreactivity (PSR sort gate)": "low polyreactivity"},
      {"sequence": "QVQLVESGGGLVQAGGSLRLSCAASGCIFYINTMGWYRQAPGKERELVAAISQSGVGTSYADSVKGRFTISRDNAKNTVYLQMNSLIPEDTAVYYCATDFARSDVVERFDYWGQGTQVTVSS", "polyreactivity (PSR sort gate)": "low polyreactivity"},
      {"sequence": "QVQLVESGGGLVQAGGSLRLSCAASGCIFYSNAMGWYRQAPGKERELVAAIARSGGSTYYADSVKGRFTISRDNAKNPVYLQMNSLKPEDTAVYYCNAKFRKADYDSWGQGTEVTVSS", "polyreactivity (PSR sort gate)": "high polyreactivity"},
      {"sequence": "QVQLVESGGGLVQAGGSLRLSCAASGCIVSYYTMGWYRQAPGKERELVAAIRSSGGSTYADSVKGRFTISRDNAKNTVYLQMNCLKPEDTAVYYCAAVQTWRWVYARDYWGEGTQVTVSS", "polyreactivity (PSR sort gate)": "high polyreactivity"},
      {"sequence": "QVQLVESGGGLVQAGGSLRLSCAASGCTFGTYAMGWYRQAPGKERELVAAITDSTGNTYYADSVKGRFTISRDNAKNTVYLQMNSLKPEDTAVYYCALEYVYDYFWMDYWGQATQVTVSS", "polyreactivity (PSR sort gate)": "high polyreactivity"},
      {"sequence": "QVQLVESGGGLVQAGGSLRLSCAASGCTFPRYAMGWYRQAPGKERELVAAISYSGGRTYYADSVKGRFTISRDNAKNTVYLQMNSLKPEDTAVYYCATEASTKRYDYWGQGTQVTVSS", "polyreactivity (PSR sort gate)": "high polyreactivity"},
      {"sequence": "QVQLVESGGGLVQAGGSLRLSCAASGCTFVSYAMGWYRQEPGKEREFVAAIAWTGGSTRYADSVKGRFTISRDNAKNTVYLQMNSLKPEDTAVYYCAARYRHYLYGYDYWGQGTQVTLSS", "polyreactivity (PSR sort gate)": "low polyreactivity"},
      {"sequence": "QVQLVESGGGLVQAGGSLRLSCAASGDITYIYAMGWYRQAPGKERELVADISSSVGNTYYADSVKGRFTISRDNAKNTVYLQMNSLKPEDTAVYYCNADYVQPTESGGTYDYWGQGTQVTVSS", "polyreactivity (PSR sort gate)": "low polyreactivity"},
      {"sequence": "QVQLVESGGGLVQAGGSLRLSCAASGFDFSYYDMGWYRQAPGKEREFVASIDWSGGSTYYADSVKGRFTISRDNAKNTDYLQMNSLKAEATAVYYCAAELDYFPGYDYWGQGTQVTVSS", "polyreactivity (PSR sort gate)": "low polyreactivity"},
      {"sequence": "QVQLVESGGGLVQAGGSLRLSCAASGFFLGQYTMGWYRQAPGKERELVAAISSSGSTNYADSVKGRFTISRDNAKNTVYLQMNSLKPEDTAVYYCSIAGIRHVTSKFKGYHFGYWGQGTQVTVSS", "polyreactivity (PSR sort gate)": "low polyreactivity"},
      {"sequence": "QVQLVESGGGLVQAGGSLRLSCAASGFHFGSYAMGWNRQAPGKERELVASISSAGRTYYADSVKGRFTISRDNAKNTVYSQMNSLKPEDTAVYYCAAESGYPVYTYVSSGDYWGQGTQVTVSS", "polyreactivity (PSR sort gate)": "low polyreactivity"},
      {"sequence": "QVQLVESGGGLVQAGGSLRLSCAASGFICPIYPMGWYRQAPGKERELVAGISWRGGSTYYADSVKGRFTISRDKATYTVYLQMNSLKPEDTAVYYCAVVVQGYSTYYYWGQGTQVTVSS", "polyreactivity (PSR sort gate)": "high polyreactivity"},
      {"sequence": "QVQLVESGGGLVQAGGSLRLSCAASGFICVHKAMGWYREAPGNERELVAAITWSGGRTYYADSVKGRCTISRDKAKNTVYLQKNSLKPEDTAVYYCATTVNSHVPGVSKYYYWGHGTQVTVSS", "polyreactivity (PSR sort gate)": "high polyreactivity"},
      {"sequence": "QVQLVESGGGLVQAGGSLRLSCAASGFIFAAYAMGWYRQAPGKERELVAAINRSGSSTYYADSVKGRFTISRDNAKNTVYLQMNSLKPEDTAVYYCAARVVHQSRYSYEYWGQGTQVTVSS", "polyreactivity (PSR sort gate)": "high polyreactivity"},
      {"sequence": "QVQLVESGGGLVQAGGSLRLSCAASGFIFADNTMGWNRQAPGKERELVAAISRRGGSTYYADSVKGRFTISRDNAKNTVYLQMNSLKPEDTAVYYCAARPFVKHDYWGQGTQVTVSS", "polyreactivity (PSR sort gate)": "high polyreactivity"},
      {"sequence": "QVQLVESGGGLVQAGGSLRLSCAASGFIFADYDMGWYRQAPGKERELVDAISWSGGTTYYADSVKGRFTISRDNAKHTVYLQMNSLKPEDTAVYYCAAYWWAVYSVVTGARYVYWGQGTQVTLSS", "polyreactivity (PSR sort gate)": "high polyreactivity"},
      {"sequence": "QVQLVESGGGLVQAGGSLRLSCAASGFIFAEYAMGWYRQAPGKERELVAAITWSGVTTYYADSVKGRFTISRDNAKNTVYLLMNSLKPEDTAVYYCAAGRTRRKFDYWGQGTQVTVSS", "polyreactivity (PSR sort gate)": "low polyreactivity"},
      {"sequence": "QVQLVESGGGLVQAGGSLRLSCAASGFIFAEYAMGWYRQAPGKERELVVAIDVGGGSTYYADSVKGRFTISGDNAKNTVYLQMNSLKPEDTAVYYCAATQYGYWVPYQGFDYWGQGTQVTVSS", "polyreactivity (PSR sort gate)": "low polyreactivity"},
      {"sequence": "QVQLVESGGGLVQAGGSLRLSCAASGFIFAFYAMGRYRQAPGKERELVASISRRSGSTYYADSVKGRFTISRDNAKNTVYLQMNSLKPEDTALYYCAADRPPCETYGYDYWGQGTQVTVSS", "polyreactivity (PSR sort gate)": "low polyreactivity"},
      {"sequence": "QVQLVESGGGLVQAGGSLRLSCAASGFIFAQNTMGWYRQAPGKERELVAAITRRGGSTYYADSVKGRFTISRDNAKNTVYLQMNSLKPEDTAVYYCNVAFRSYYTSSLLDYWGQGTQVTVSS", "polyreactivity (PSR sort gate)": "high polyreactivity"},
      {"sequence": "QVQLVESGGGLVQAGGSLRLSCAASGFIFARNTMGWYRQSPGKERELVAAITKSGGSTYYADSVKGRFTISRDNAKNTVYLQMNSLKPEDTAVYYCAKDPVELSPADWRADYDYWGQGTQVTVSS", "polyreactivity (PSR sort gate)": "low polyreactivity"},
      {"sequence": "QVQLVESGGGLVQAGGSLRLSCAASGFIFASNTMGWYRQAPGKERELVAAISSRGGRTYYAASVKGRFTISRDNAKNTVYLQMNSLKPEDTAVYYCAAVQKGDSTLLRTKGGYWGQGTQVTVSS", "polyreactivity (PSR sort gate)": "high polyreactivity"},
      {"sequence": "QVQLVESGGGLVQAGGSLRLSCAASGFIFASYTLGWYRQAPGKERELVAAISRAGSTYYADSVKGRFTISRDNAKNTVYLQMNSLKPEDTAVYYCNAVSWRTSRYDYWGQGTQVTVSS", "polyreactivity (PSR sort gate)": "high polyreactivity"},
      {"sequence": "QVQLVESGGGLVQAGGSLRLSCAASGFIFAWNAMGWYRLAPGKERELVAAITSAGSTKYADSVKGRFTISRDNAKNTVYLQMNSLKPEDTAVYYCAAARFRIYCGQGTQVTVSS", "polyreactivity (PSR sort gate)": "high polyreactivity"},
      {"sequence": "QVQLVESGGGLVQAGGSLRLSCAASGFIFAWYAMGWYRQAPGKERELVASISVSDGSTYYADSVKGRFTISRDNAKNTVYLQMNSLKPEDTAVYYCAADRFYDQAYDYWGQGTQVTVSS", "polyreactivity (PSR sort gate)": "low polyreactivity"},
      {"sequence": "QVQLVESGGGLVQAGGSLRLSCAASGFIFAYYAMGWYRQAPGKERELVAAISSRGGTYYADSVKGRFTISRDNAKNTVYLQMNSLKPEDTAVYYCAAASYTWVSRGYEYWGQGTQVTVSS", "polyreactivity (PSR sort gate)": "high polyreactivity"},
      {"sequence": "QVQLVESGGGLVQAGGSLRLSCAASGFIFAYYAMGWYRQAPGKERELVAAISYNGGTTYYADSVKGRFTISRDNAKNTVYLQMNSLKPEDSAVYYCNALVHQTYYDYDYWGQGTQVTVSS", "polyreactivity (PSR sort gate)": "high polyreactivity"},
      {"sequence": "QVQLVESGGGLVQAGGSLRLSCAASGFIFAYYTMGWYRQAPGKERELVAAISWSGGTTYYADSVKGRFTISRDNAKNTVYLQMNSLKPEDTAVYYCNAYPKWLGYYEDDYWGQGTQVTVSS", "polyreactivity (PSR sort gate)": "low polyreactivity"},
      {"sequence": "QVQLVESGGGLVQAGGSLRLSCAASGFIFDAYAMGWYRQAPGKERELVAAITRGNTYYADSVKGRFTISRDNAKNTVYLQMNSLKPEDTAVYYCAARYWQSYRSQVTHSSTLDYWGQGTQVTVSS", "polyreactivity (PSR sort gate)": "low polyreactivity"},
      {"sequence": "QVQLVESGGGLVQAGGSLRLSCAASGFIFDDYAMGWYRQAPGKERELVAAISVSSTNYADSVKGRFTISRDNAKNTVYLQMNSLKPEDTAVYYCAADTYTYFLASYLYGQYDYWGQGTQVTVSS", "polyreactivity (PSR sort gate)": "low polyreactivity"},
      {"sequence": "QVQLVESGGGLVQAGGSLRLSCAASGFIFDGNAMGWYRQAPGKERELVAAISSDGGTYYADSVKGRFTISRDNAKNTVYLQMNSLKPEDTAVYYCAAEQTLLYSFGWDEYWGQGTQVTVSS", "polyreactivity (PSR sort gate)": "low polyreactivity"},
      {"sequence": "QVQLVESGGGLVQAGGSLRLSCAASGFIFDGYTMGWYRQAPGKERELVAAISRSGGRTYYADSVKGRFTISRDNAKNTVYLQMNSLKPEDTAVYYCAVRYRQYSQTVASDYGYWGQGTQVTVSS", "polyreactivity (PSR sort gate)": "high polyreactivity"},
      {"sequence": "QVQLVESGGGLVQAGGSLRLSCAASGFIFDHNARGWYRQAPGKERELVAAITWRGDSTYYADSVKGRFTISRDNAKNTVYLQMNSLKPEDTAVYYCNADAILVYYGKLDYWGQGTQVTVSS", "polyreactivity (PSR sort gate)": "low polyreactivity"},
      {"sequence": "QVQLVESGGGLVQAGGSLRLSCAASGFIFDQYAMGWYRQAPGKERELVAAITSGGDTNYADSVKGRFTISRDNAKNTVYFQMNSLKPEDTAVYYCNVDVPGVRFEYWGQGTQVTVSS", "polyreactivity (PSR sort gate)": "low polyreactivity"},
      {"sequence": "QVQLVESGGGLVQAGGSLRLSCAASGFIFDRYAMGWYRQAPGKERELVAAISSGGSTYYADSVKGRFTISRDNAKNTVYLQMNSLKPEDTAVYYCAAESWLKFIYEYDYWGQGTQVTVSS", "polyreactivity (PSR sort gate)": "low polyreactivity"},
      {"sequence": "QVQLVESGGGLVQAGGSLRLSCAASGFIFDRYAMGWYRQAPGKERELVAAITGSGGSTYYADSVKGRFTISRDNAKNTVYLQMNSLKPEDTAVYYCAAESYVYFALFYVSIPYYYWGQGTQVTVSS", "polyreactivity (PSR sort gate)": "high polyreactivity"},
      {"sequence": "QVQLVESGGGLVQAGGSLRLSCAASGFIFDSNAMGWYRQAPGKERELVAAISRSGASTYYADSVKGRFTISRDNAKNTVYLQMNSLKPEDTSVYYCAASVRKIHDRFYYWGQGTQVTVSS", "polyreactivity (PSR sort gate)": "high polyreactivity"},
      {"sequence": "QVQLVESGGGLVQAGGSLRLSCAASGFIFDSYAMGWYRPAPGKERELVATITKGGGRTYYADSVKGRFTISRDNAKNTVYLQMNSLKPEDTAVYYCNARGFSRRKGLDYWGQGTQVTVSS", "polyreactivity (PSR sort gate)": "low polyreactivity"},
      {"sequence": "QVQLVESGGGLVQAGGSLRLSCAASGFIFDSYAMGWYRQAPGKERELVAAISWSGGRTYYADSVKGRFTISRDNAKYTVYLQMNSLKPEDTAVYYCNVRTKLSSSYDYWGQGTQVTVSS", "polyreactivity (PSR sort gate)": "high polyreactivity"}
    ]}
  ]
}
